Test results published in patent publication US20020168372A1 (published 2002).

Biological target: the molecule itself
Assay: self-assembly; CsCl gradient and TEM

Row | Protein | binding result
1 | HPV16 L1 protein of clone P114/16/11 (114/K) (other, Differs from prototype L1 only by His202Asp; Expressed in Sf-9 insect cells; self-assembles into VLP; also called 114K-L1; 114/K-L1) MSLWLPSEATVYLPPVPVSKVVSTDEYVARTNIYYHAGTSRLLAVGHPYFPIKKPNNNKILVPKVSGLQYRVFRIHLPDPNKFGFPDTSFYNPDTQRLVWACVGVEVGRGQPLGVGISGHPLLNKLDDTENASAYAANAGVDNRECISMDYKQTQLCLIGCKPPIGEHWGKGSPCTNVAVNPGDCPPLELINTVIQDGDMVDTGFGAMDFTTLQANKSEVPLDICTSICKYPDYIKMVSEPYGDSLFFYLRREQMFVRHLFNRAGTVGENVPDDLYIKGSGSTANLASSNYFPTPSGSMVTSDAQIFNKPYWLQRAQGHNNGICWGNQLFVTVVDTTRSTNMSLCAAISTSETTYKNTNFKEYLRHGEEYDLQFIFQLCKITLTADVMTYIHSMNSTILEDWNFGLQPPPGGTLEDTYRFVTSQAIACQKHTPPAPKEDPLKKYTFWEVNLKEKFSADLDQFPLGRKFLLQAGLKAKPKFTLGKRKATPTTSSTSTTAKRKKRKL | binds
2 | HPV16 L1 protein of clone P114/16/2 (114/B) (other, Differs from prototype L1 by Val194Ile, His202Asp and Thr266Ala; Expressed in Sf-9 insect cells; self-assembles into VLP) MSLWLPSEATVYLPPVPVSKVVSTDEYVARTNIYYHAGTSRLLAVGHPYFPIKKPNNNKILVPKVSGLQYRVFRIHLPDPNKFGFPDTSFYNPDTQRLVWACVGVEVGRGQPLGVGISGHPLLNKLDDTENASAYAANAGVDNRECISMDYKQTQLCLIGCKPPIGEHWGKGSPCTNVAVNPGDCPPLELINTIIQDGDMVDTGFGAMDFTTLQANKSEVPLDICTSICKYPDYIKMVSEPYGDSLFFYLRREQMFVRHLFNRAGAVGENVPDDLYIKGSGSTANLASSNYFPTPSGSMVTSDAQIFNKPYWLQRAQGHNNGICWGNQLFVTVVDTTRSTNMSLCAAISTSETTYKNTNFKEYLRHGEEYDLQFIFQLCKITLTADVMTYIHSMNSTILEDWNFGLQPPPGGTLEDTYRFVTSQAIACQKHTPPAPKEDPLKKYTFWEVNLKEKFSADLDQFPLGRKFLLQAGLKAKPKFTLGKRKATPTTSSTSTTAKRKKRKL | binds
